Laboratory results from publication PMC13035910, “Dbf4-dependent kinase finetunes Ino80 function at chromosome replication origins” (Nature Communications, 2026).

T1: Ies1 subunit of the INO80 complex (S. cerevisiae (endogenous, S288c …, UniProt P43579 1-692))
T1 construct: Ies1, N-module subunit of INO80, budding yeast; endogenous protein; Stood in the cross-linking assay as part of the whole purified complex; source: endogenously expressed in S. cerevisiae (S288c background; wild-type strain and yPB5), purified within the INO80 or INO80-AA complex (anti-FLAG M2 resin, Mono Q)
T1 sequence (looked up): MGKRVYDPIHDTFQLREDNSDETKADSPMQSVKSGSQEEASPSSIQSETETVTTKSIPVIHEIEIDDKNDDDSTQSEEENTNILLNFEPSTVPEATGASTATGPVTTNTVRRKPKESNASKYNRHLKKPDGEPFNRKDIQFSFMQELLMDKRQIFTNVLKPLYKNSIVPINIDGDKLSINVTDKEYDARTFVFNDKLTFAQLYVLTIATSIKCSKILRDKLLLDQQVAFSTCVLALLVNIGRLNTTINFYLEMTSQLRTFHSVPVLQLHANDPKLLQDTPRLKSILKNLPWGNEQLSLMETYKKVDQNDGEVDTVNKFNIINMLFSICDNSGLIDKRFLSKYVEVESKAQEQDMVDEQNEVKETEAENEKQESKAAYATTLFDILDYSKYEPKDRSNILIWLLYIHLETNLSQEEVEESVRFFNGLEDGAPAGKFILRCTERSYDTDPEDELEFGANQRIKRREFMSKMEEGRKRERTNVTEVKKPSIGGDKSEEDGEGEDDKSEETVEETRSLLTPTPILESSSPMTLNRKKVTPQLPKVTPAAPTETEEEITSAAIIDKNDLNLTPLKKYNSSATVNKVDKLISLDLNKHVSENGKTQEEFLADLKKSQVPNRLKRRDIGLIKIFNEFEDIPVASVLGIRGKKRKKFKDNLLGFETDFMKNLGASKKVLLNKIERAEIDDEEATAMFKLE

B1: N-module of the INO80 complex (Nhp10/Ies1/Ies3/Ies5) (complex)
chain 1: MSVEEKKRRLEELKDQNVVLGLAIQRSRLSVKRLKLEYGVLLERLESRIELDPELNCEDPLPTLASFKQELLTKPFRKSKTKRHKVKERDPNMPKRPTNAYLLYCEMNKERIRQNGSLDVTRDLAEGWKNLNEQDRKPYYKLYSEDRERYQMEMEIYNKKISNIDADDDKEENEQKIKNNEEGSSTKVADSKGGEDGSLVSSN
chain 2: T1 sequence (looked up)
chain 3: MKFEDLLATNKQVQFAHAATQHYKSVKTPDFLEKDPHHKKFHNADGLNQQGSSTPSTATDANAASTASTHTNTTTFKRHIVAVDDISKMNYEMIKNSPGNVITNANQDEIDISTLKTRLYKDNLYAMNDNFLQAVNDQIVTLNAAEQDQETEDPDLSDDEKIDILTKIQENLLEEYQKLSQKERKWFILKELLLDANVELDLFSNRGRKASHPIAFGAVAIPTNVNANSLAFNRTKRRKINKNGLLENIL
chain 4: MPSKDPESVIDKEIRKISARNDELIKQDGTLKREYTTLLRKVSSVITVLNSIDDADTGSAETELPRLISQATVEKVPELKWYNDQISLITEKLEDDEDIEVPEELMDAYTLYKETPLLYNDTHTP
notes: Nhp10, N-module subunit of INO80, budding yeast; endogenous protein; Ies1, N-module subunit of INO80, budding yeast; Ies3, N-module subunit of INO80, budding yeast; Ies5, N-module subunit of INO80, budding yeast; Stood in the cross-linking assay as part of the whole purified complex; also called NHP10 module; N-module subunits; source: endogenously expressed in S. cerevisiae (S288c background; …)
B2: the rest of the N-module of the INO80 complex (Nhp10/Ies3/Ies5) (complex)
chain 1: B1 chain 1
chain 2: B1 chain 3
chain 3: B1 chain 4
notes: Nhp10, N-module subunit of INO80, budding yeast; endogenous protein; Ies3, N-module subunit of INO80, budding yeast; Ies5, N-module subunit of INO80, budding yeast; source: endogenously expressed in S. cerevisiae (S288c background; wild-type strain and yPB5), purified within the INO80 or INO80-AA complex (anti-FLAG M2 resin, Mono Q); copies: + +
B3: Ino80 subunit of the INO80 complex (natural protein, UniProt P53115 1-1489, looked up)
chain: MSLAVLLNKEDKDISDFSKTTAGKSAKKNSRERVADVAPTRVLDKKQAYLSQLNSEFNRIKRRDSIEQLYQDWKFINLQEFELISEWNQQSKDWQFDNTNDSQDLHFKKLYRDMSMINKEWAEYQSFKNANLSDIINEKDADEDEEDDEDELEDGEEDMEEDEASTGRHTNGKSMRGNGIQKSRKKDAAAAAAIGKAIKDDQTHADTVVTVNGDENEDGNNGEDEDNDNDNENNNDNDNDNENENDNDSDNDDEEENGEEDEEEEEIEDLDEEDFAAFEEQDDNDDEDFNPDVEKRRKRSSSSSSSTKLSMNSLSLITSKKINKNITINSDRPKIVRELIKMCNKNKHQKIKKRRFTNCIVTDYNPIDSKLNIKITLKQYHVKRLKKLINDAKREREREEALKNNVGLDGNDLDNDEDGSESHKRRKLNNNTANGADDANKRKFNTRHGLPTYGMKMNAKEARAIQRHYDNTYTTIWKDMARKDSTKMSRLVQQIQSIRSTNFRKTSSLCAREAKKWQSKNFKQIKDFQTRARRGIREMSNFWKKNEREERDLKKKIEKEAMEQAKKEEEEKESKRQAKKLNFLLTQTELYSHFIGRKIKTNELEGNNVSSNDSESQKNIDISALAPNKNDFHAIDFDNENDEQLRLRAAENASNALAETRAKAKQFDDHANAHEEEEEEDELNFQNPTSLGEITIEQPKILACTLKEYQLKGLNWLANLYDQGINGILADEMGLGKTVQSISVLAHLAENHNIWGPFLVVTPASTLHNWVNEISKFLPQFKILPYWGNANDRKVLRKFWDRKNLRYNKNAPFHVMVTSYQMVVTDANYLQKMKWQYMILDEAQAIKSSQSSRWKNLLSFHCRNRLLLTGTPIQNSMQELWALLHFIMPSLFDSHDEFNEWFSKDIESHAEANTKLNQQQLRRLHMILKPFMLRRVKKNVQSELGDKIEIDVLCDLTQRQAKLYQVLKSQISTNYDAIENAATNDSTSNSASNSGSDQNLINAVMQFRKVCNHPDLFERADVDSPFSFTTFGKTTSMLTASVANNNSSVISNSNMNLSSMSSNNISNGKFTDLIYSSRNPIKYSLPRLIYEDLILPNYNNDVDIANKLKNVKFNIFNPSTNYELCLFLSKLTGEPSLNEFFRVSTTPLLKRVIERTNGPKNTDSLSFKTITQELLEVTRNAPSEGVMASLLNVEKHAYEREYLNCIQRGYHPNVSAPPVTIEVLGSSHVTNSINNELFDPLISQALSDIPAITQYNMHVKKGIPVEDFPKTGLFPEPLNKNFSSNISMPSMDRFITESAKLRKLDELLVKLKSEGHRVLIYFQMTKMMDLMEEYLTYRQYNHIRLDGSSKLEDRRDLVHDWQTNPEIFVFLLSTRAGGLGINLTAADTVIFYDSDWNPTIDSQAMDRAHRLGQTRQVTVYRLLVRGTIEERMRDRAKQKEQVQQVVMEGKTQEKNIKTIEVGENDSEVTREGSKSISQDGIKEAASALA
notes: Ino80, motor ATPase and scaffold subunit of the INO80 complex, budding yeast; endogenous protein with chromosomally inserted tag; Stood in the cross-linking assay as part of the whole purified complex; also called Ino80 scaffold; motor ATPase Ino80; source: endogenously expressed in S. cerevisiae (S288c background; wild-type strain and yPB5), purified within the INO80 or INO80-AA complex …

Columns and labels:
Assay in all cases: cross-linking; DSBU cross-linking with mass spectrometry of the purified wild-type INO80 complex; 58 uM DSBU, 20 min, 30 C, 1200 rpm; 25 mM HEPES-NaOH pH 7.2, 300 mM NaCl, 5% glycerol, 1 mM DTT, 4 mM MgCl2; repeated with an independent batch
Settings in all cases: both partners purified
[1] = molecular target: B3
[2] = molecular target: T1, Ies1 subunit of the INO80 complex
[3] = molecular target: T2, A-module of the INO80 complex (Arp4/Arp8/Act1(actin)/Taf14/Ies4) (S. cerevisiae (endogenous, S288c …, UniProt P80428 1-489; Q12386 1-881; P60010 1-375; P35189 1-244; Q08561 1-116)
T2 construct: Arp4, A-module subunit of INO80, budding yeast; endogenous protein; Arp8, A-module subunit of INO80, budding yeast; endogenous wild-type protein; Act1 (actin), A-module subunit of INO80, budding yeast; Taf14, A-module subunit of INO80, budding yeast; Ies4, A-module subunit of INO80, budding yeast; Stood in the cross-linking assay as part of the whole purified wild-type complex; also called ARP8 …

B1
binding result [1]: binds

B2
binding result [2]: binds

B3
binding result [3]: binds
